Legend:
Assay type in all cases: cell-based, human
[1] = tested on: peripheral blood mononuclear cells (PBMC); assay: Example 46A percent-modified G-CSF mRNA transfected in PBMC, G-CSF ELISA
Protocol: (§1) 960 ng of G-CSF mRNA modified with 5-methylcytosine (5mC) and pseudouridine (pseudoU) or unmodified G-CSF mRNA was transfected with 0.8 uL of Lipofectamine 2000 into peripheral blood mononuclear cells (PBMC) from three normal blood donors (D1, D2, D3). […] The supernatant was harvested and run by ELISA 22 hours after transfection to determine the protein expression. The expression of IFN-alpha and TNF-alpha may be a secondary effect from the transfection of the G-CSF mRNA.

HEK293 = assay: Example 46B percent-modified G-CSF mRNA transfected in HEK293, secreted G-CSF ELISA; settings: HEK293, 250 ng mRNA with RNAiMAX, supernatant after 16 hours
Protocol: Human embryonic kidney epithelial (HEK293) cells were seeded on 96-well plates at a density of 30,000 cells per well in 100 ul cell culture medium. 250 ng of modified G-CSF mRNA (SEQ ID NO: 6; polyA tail of approximately 160 nucleotides not shown in sequence; 5′cap, Cap1) formulated with RNAiMAX™ (Invitrogen, Carlsbad, Calif.) was added to a well. The G-CSF was completely modified with 5mC and pseudoU (100% modification), not modified with 5mC and pseudoU (0% modification) or was partially modified with 5mC and pseudoU so the mRNA would contain 75% modification, 50% modification or 25% modification. Control samples (AK 5/2, mCherry (SEQ ID NO: 7; polyA tail of approximately 160 nucleotides not shown in sequence; 5′cap, Cap1; fully modified 5mC and pseudoU) and untreated) were also analyzed. […] The supernatants were harvested after 16 hours and the secreted G-CSF protein was analyzed by ELISA.

[2] = tested on: peripheral blood mononuclear cells (PBMC); assay: G-CSF expression in PBMC transfected with partially modified G-CSF mRNA (ELISA); settings: for G-CSF Expression: ELISA 22 hours after transfection
Protocol: as §1, with “480” for “960”, “0.4” for “0.8”, “D2, and” for “D2,”

[3] = tested on: peripheral blood mononuclear cells (PBMC); assay: IFN-alpha and TNF-alpha expression in transfected PBMC (ELISA) and PC ratio; settings: for IFN-alpha expression / TNF-alpha Expression: ELISA 22 hours after transfection
Protocol: The supernatant was harvested and run by ELISA 22 hours after transfection to determine the protein expression.

[4] = tested on: peripheral blood mononuclear cells (PBMC); assay: Modified RNA transfected in PBMC: G-CSF expression at 6 and 18 hours (ELISA)
Protocol: (§2) 500 ng of G-CSF mRNA modified with 5-methylcytosine (5mC) and pseudouridine (pseudoU) or unmodified G-CSF mRNA was transfected with 0.4 uL of Lipofectamine 2000 into peripheral blood mononuclear cells (PBMC) from three normal blood donors (D1, D2, and D3). […] The supernatant was harvested 6 hours and 18 hours after transfection and run by ELISA to determine the protein expression. The expression of G-CSF, IFN-alpha, and TNF-alpha for Donor 1 is shown in Table 86, Donor 2 is shown in Table 87 and Donor 3 is shown in Table 88.

[5] = tested on: peripheral blood mononuclear cells (PBMC); assay: Modified RNA transfected in PBMC: IFN-alpha and TNF-alpha at 6 and 18 hours (ELISA)
Protocol: as §2

[6] = PBMC, from averages of Tables 83 and 84

B1: 100% modification: G-CSF mRNA (SEQ ID NO: 6, Cap1) completely modified with 5mC and pseudoU (nucleic acid, listed as Homo sapiens)
chain: GGGAAAUAAGAGAGAAAAGAAGAGUAAGAAGAAAUAUAAGAGCCACCAUGGCCGGUCCCGCGACCCAAAGCCCCAUGAAACUUAUGGCCCUGCAGUUGCUGCUUUGGCACUCGGCCCUCUGGACAGUCCAAGAAGCGACUCCUCUCGGACCUGCCUCAUCGUUGCCGCAGUCAUUCCUUUUGAAGUGUCUGGAGCAGGUGCGAAAGAUUCAGGGCGAUGGAGCCGCACUCCAAGAGAAGCUCUGCGCGACAUACAAACUUUGCCAUCCCGAGGAGCUCGUACUGCUCGGGCACAGCUUGGGGAUUCCCUGGGCUCCUCUCUCGUCCUGUCCGUCGCAGGCUUUGCAGUUGGCAGGGUGCCUUUCCCAGCUCCACUCCGGUUUGUUCUUGUAUCAGGGACUGCUGCAAGCCCUUGAGGGAAUCUCGCCAGAAUUGGGCCCGACGCUGGACACGUUGCAGCUCGACGUGGCGGAUUUCGCAACAACCAUCUGGCAGCAGAUGGAGGAACUGGGGAUGGCACCCGCGCUGCAGCCCACGCAGGGGGCAAUGCCGGCCUUUGCGUCCGCGUUUCAGCGCAGGGCGGGUGGAGUCCUCGUAGCGAGCCACCUUCAAUCAUUUUUGGAAGUCUCGUACCGGGUGCUGAGACAUCUUGCGCAGCCGUGAAGCGCUGCCUUCUGCGGGGCUUGCCUUCUGGCCAUGCCCUUCUUCUCUCCCUUGCACCUGUACCUCUUGGUCUUUGAAUAAAGCCUGAGUAGGAAG
modifications: Cap1; fully 5-methylcytidine and pseudouridine modified
[1]; PBMC donor D1, 960 ng mRNA
  G-CSF Expression: 270.3 pg/mL
[1]; PBMC donor D2, 960 ng mRNA
  G-CSF Expression: 151.6 pg/mL
[1]; PBMC donor D3, 960 ng mRNA
  G-CSF Expression: 162.2 pg/mL
HEK293
  G-CSF Expression: 118.4 ng/mL
[2]; PBMC donor D1, 480 ng mRNA + Lipofectamine 2000
  G-CSF Expression: 1968.9 pg/mL
[2]; PBMC donor D2, 480 ng mRNA
  G-CSF Expression: 2595.6 pg/mL
[2]; PBMC donor D3, 480 ng mRNA
  G-CSF Expression: 2835.7 pg/mL
[2]; average of PBMC donors D1-D3
  Average G-CSF: 2466 pg/mL
[3]; PBMC
  ratio of protein/cytokine production versus natural G-CSF mRNA, IFN-alpha: 100 fold
  ratio of protein/cytokine production versus natural G-CSF mRNA, TNF-alpha: 27 fold
[3]; PBMC donor D1
  IFN-alpha expression: 336.5 pg/mL
  TNF-alpha Expression: 115.0 pg/mL
[3]; PBMC donor D2
  IFN-alpha expression: 78.0 pg/mL
  TNF-alpha Expression: 15.0 pg/mL
[3]; PBMC donor D3
  IFN-alpha expression: 46.4 pg/mL
  TNF-alpha Expression: 11.1 pg/mL
[3]; [6]
  G-CSF/IFN-alpha (PC ratio): 16
  G-CSF/TNF-alpha (PC ratio): 52
[3]; average of PBMC donors D1-D3
  Average IFN-a: 153 pg/mL
  Average TNF-a: 47 pg/mL
[4]; PBMC Donor 1, 500 ng mRNA, 6 hours
  G-CSF: 1815 pg/mL
[4]; PBMC Donor 1, 18 hours
  G-CSF: 2224 pg/mL
[4]; PBMC Donor 2, 6 hours
  G-CSF: 2184 pg/mL
[4]; PBMC Donor 2, 18 hours
  G-CSF: 2432 pg/mL
[4]; PBMC Donor 3, 6 hours
  G-CSF: 6086 pg/mL
[4]; PBMC Donor 3, 18 hours
  G-CSF: 7549 pg/mL
[5]; PBMC Donor 1, 6 hours
  IFN-alpha: 1 pg/mL
  TNF-alpha: 0 pg/mL
[5]; PBMC Donor 1, 18 hours
  IFN-alpha: 13 pg/mL
  TNF-alpha: 0 pg/mL
[5]; PBMC Donor 2, 6 hours
  IFN-alpha: 0 pg/mL
  TNF-alpha: 0 pg/mL
[5]; PBMC Donor 2, 18 hours
  IFN-alpha: 7 pg/mL
  TNF-alpha: 11 pg/mL
[5]; PBMC Donor 3, 6 hours
  IFN-alpha: 7 pg/mL
  TNF-alpha: 11 pg/mL
[5]; PBMC Donor 3, 18 hours
  IFN-alpha: 658 pg/mL
  TNF-alpha: 11 pg/mL
